Source: the supplement of paper PMC10126150
± gives the standard deviation of the averaged measurements.

Test system: ATP
Test: switch fluorescence ratio, 500 uM ATP over buffer (Cy3 cluster intensity, sum of 5 cycles each) (fold (ratio)); higher = stronger signal-on switching upon ATP binding; sequences stand for … in TCGTCGGCAGCGTCAGATGTGTATAAGAGACAGTTTTTTTTTTTTTTTTTTTTTTTTT…TC
Conditions: aptamer strand: ATP DNA aptamer (quencher-CACCTGGGGGAGTATTGCGGAGGAAGG + anchor), 100 nM annealed; ATP concentration: 500 uM
Summary of the method: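 Cy3-labelled switching-strand clusters on a modified Illumina MiSeq flow-cell were annealed to 100 nM quencher-labelled ATP aptamer, imaged in selection buffer, then imaged after 15 min with 500 uM ATP at 22 °C. Five buffer/ATP cycles ran, with NaOH stripping and re-annealing between them. The fluorescence ratio is summed target-cycle over summed buffer-cycle Cy3 intensity per cluster, averaged per switch-domain sequence. Clusters outside 100-1000 RFU were excluded.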
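Further: ATP exposure 15 min at 22 °C before imaging.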

| Sequence | switch fluorescence ratio |
| --- | --- |
| AGGGAGGTGG | 1.02 ± 0.026 |
| TTGGGTCAGA | 0.981 ± 0.018 |
| GAGAGGGGTA | 0.974 ± 0.014 |
| TTAGGTGGG | 0.989 ± 0.024 |
| GCATCCGGGA | 0.956 ± 0.039 |
| GTGGGCGCCG | 0.987 ± 0.023 |
| TATCACTTTC | 1.06 ± 0.033 |
| TTTTAAGGAG | 1 ± 0.047 |
| GTAGTGAGGG | 0.982 ± 0.037 |
| CGAATATGAT | 1.02 ± 0.058 |
| GGGTCTGGTG | 1.04 ± 0.057 |
| TTGAGGGGTT | 0.979 ± 0.0086 |
| AAATATATGT | 0.997 ± 0.046 |
| CATATGACGG | 0.986 ± 0.038 |
| TAGACCTCCC | 1.81 ± 0.16 |
| GGGTTGACCC | 0.993 ± 0.024 |
| TGCTGAAAAC | 0.974 ± 0.028 |
| ACATTTTCGT | 0.991 ± 0.032 |
| TTTCAGGTGG | 1.02 ± 0.015 |
| AACTTTTTTA | 0.964 ± 0.017 |
| TTTCCTCTGG | 1.95 ± 1.4 |
| TGCAGGGGGC | 1.02 ± 0.022 |
| GCTGAATTTG | 0.989 ± 0.058 |
| TTTTTCACGA | 1.03 ± 0.019 |
| TCCGTGAGAT | 1.44 ± 0.047 |

| Sequence | switch fluorescence ratio |
| --- | --- |
| GGCCCAGCGC | 0.976 ± 0.0011 |
| GGGGAAAGAG | 1 ± 0.017 |
| GGGGAGGGAC | 1.02 ± 0.053 |
| ATCCTAGGGC | 1.007 ± 0.0095 |
| AATCGGTACT | 1.01 ± 0.038 |
| TTCTTTAGAA | 1.03 ± 0.046 |
| GAGGGGGTAG | 0.997 ± 0.033 |
| GTTACGGCAA | 1.27 ± 0.064 |
| GGGCTTTTCG | 0.992 ± 0.024 |
| GCGGGAAGGG | 0.995 ± 0.033 |
| CGGACCGGGG | 0.996 ± 0.041 |
| AATTGTAAAA | 0.988 ± 0.027 |
| TAAATTTGGG | 0.974 ± 0.017 |
| CATTACAGGG | 1.01 ± 0.023 |
| TCTCTTTGTG | 1.02 ± 0.024 |
| GATTGACAGG | 1.04 ± 0.03 |
| ACGAAAATGG | 1.05 ± 0.062 |
| CCGGACCACG | 1.01 ± 0.029 |
| ATATCTTTCG | 1.02 ± 0.014 |
| GAGTGGGTTT | 0.999 ± 0.03 |
| GCAGTCGCAA | 1.1 ± 0.043 |
| TTCGATGGAA | 1.06 ± 0.0038 |
| TTGATGGTCA | 0.943 ± 0.041 |
| GATTTTTATA | 0.969 ± 0.028 |
| GGGGTATTGC | 1.004 ± 0.0076 |

| Sequence | switch fluorescence ratio |
| --- | --- |
| GTCGTTTTGG | 0.99 ± 0.029 |
| CCTGTAATGT | 1.12 ± 0.042 |
| GGAAATATCG | 0.989 ± 0.021 |
| AGGGTTTTTG | 0.994 ± 0.016 |
| ATTTTAAATG | 1.04 ± 0.03 |
| GTCAGCTTGC | 1 ± 0.025 |
| AGGATATGGC | 1.09 ± 0.12 |
| TCAGAGAAGA | 0.962 ± 0.023 |
| TTTTGATTTT | 1.02 ± 0.041 |
| GGACGGGGGC | 1 ± 0.016 |
| GTAATTTGGG | 0.982 ± 0.019 |
| TGCTTGGAGG | 0.996 ± 0.014 |
| AACTTTTTCG | 1.012 ± 0.0034 |
| CAGTAAAAGG | 1.01 ± 0.028 |
| TTGAAGTGGG | 1.03 ± 0.014 |
| GGTGATGAAA | 0.998 ± 0.025 |
| CATGAGACCG | 1.03 ± 0.016 |
| GGGTTTTCGG | 0.987 ± 0.026 |
| AGGGGGGCAA | 1.03 ± 0.13 |
| TTTAGGGGAG | 0.994 ± 0.022 |
| ACAGCTGTTT | 0.998 ± 0.027 |
| GACCTTGGGA | 0.992 ± 0.039 |
| TCACGTTGGA | 1.01 ± 0.019 |
| AATAGAGGTC | 0.988 ± 0.013 |
| TTAGGCAGAT | 1.24 ± 0.36 |

| Sequence | switch fluorescence ratio |
| --- | --- |
| TTGGGTGAGG | 0.98 ± 0.028 |
| TATTGACTAG | 1.03 ± 0.059 |
| GGGGTGAAAT | 1 ± 0.018 |
| GTTGCGTTTT | 0.9852 ± 0.0095 |
| TTATTTGGGT | 1 ± 0.021 |
| TTTTTAAATT | 0.997 ± 0.025 |
| GGGATCATTA | 0.983 ± 0.02 |
| TTTTGACTGT | 0.966 ± 0.015 |
| GGTTGAATGT | 0.9843 ± 0.0074 |
| GAGCACAGGT | 2.33 ± 0.12 |
| TATTTTAAGT | 0.993 ± 0.038 |
| TTTTATAGCA | 1.02 ± 0.059 |
| GGGTGGGGCA | 1.01 ± 0.045 |
| GTGATCTGGG | 0.9689 ± 0.0053 |
| GGGGTGTGGT | 0.998 ± 0.038 |
| CGTTTCGCCC | 1.04 ± 0.038 |
| CGCCTGTTAG | 0.99 ± 0.016 |
| ATCGAGTCTA | 0.953 ± 0.017 |
| GGGTAGACTG | 0.955 ± 0.03 |
| GCCATTGGGG | 0.9872 ± 0.0012 |
| CTCCGATGTG | 1.57 ± 0.061 |
| GGGCAGCTCT | 0.958 ± 0.016 |
| CGTCAATTTA | 1.12 ± 0.12 |
| GGGAAGAGAG | 0.985 ± 0.021 |
| AGTAGAGTGT | 0.995 ± 0.04 |
